Test results taken from patent US6429191B1, “Treatment of hearing impairments” (Genentech, Inc., priority 1996, dated 2002).

B1: neurotrophin-4/5 (protein, UniProt P34130 81-210, looked up)
Neurotrophin-4: GVSETAPASRRGELAVCDAVSGWVTDRRTAVDLRGREVEVLGEVPAAGGSPLRQYFFETRCKADNAEEGGPGAGGGGCRGVDRRHWVSECKAKQSYVRALTADAQGRVGWRWIRIDTACVCTLLSRTGRA
modifications: Neurotrophin-4
B2: FGF-7: growth factor (R&D Systems) (protein, UniProt P21781 32-194, looked up)
Fibroblast growth factor 7: CNDMTPEQMATNVNCSSPERHTRSYDYMEGGDIRVRRLFCRTQWYLRIDKRGKVKGTQEMKNNYNIMEIRTVAVGIVAIKGVESEFYLAMNKEGKLYAKKECNEDCNFKELILENHYNTYASAKWTHNGGEMFVALNQKGIPVRGKKTKKEQKTAHFLPMAIT
B3: TGF-β2: transforming growth factor (protein, UniProt P61812 303-414, looked up)
Transforming growth factor …: ALDAAYCFRNVQDNCCLRPLYIDFKRDLGWKWIHEPKGYNANFCAGACPYLWSSDTQHSRVLSLYNTINPEASASPCCVSQDLEPLTILYYIGKTPKIEQLSNMIVKSCKCS
B4: TGF-β3: transforming growth factor (protein, UniProt P10600 301-412, looked up)
Transforming growth factor …: ALDTNYCFRNLEENCCVRPLYIDFRQDLGWKWVHEPKGYYANFCSGPCPYLRSADTTHSTVLGLYNTLNPEASASPCCVPQDLEPLTILYYVGRTPKVEQLSNMVVKSCKCS
B5: FGF-5: growth factor (R & D Systems) (protein, UniProt P12034 21-268, looked up)
Fibroblast growth factor 5: HGEKRLAPKGQPGPAATDRNPRGSSSRQSSSSAMSSSSASSSPAASLGSQGSGLEQSSFQWSPSGRRTGSLYCRVGIGFHLQIYPDGKVNGSHEANMLSVLEIFAVSQGIVGIRGVFSNKFLAMSKKGKLHASAKFTDDCKFRERFQENSYNTYASAIHRTEKTGREWYVALNKRGKAKRGCSPRVKPQHISTHFLPRFKQSEQPELSFTVTVPEKKKPPSPIKPKIPLSAPRKNTNSVKYRLKFRFG
B6: E92A NT-3: NT-3 with mutation at position E92 to alanine (protein, UniProt P20783 139-257, looked up, variant E92A)
Neurotrophin-3: YAEHKSHRGEYSVCDSESLWVTDKSSAIDIRGHQVTVLGEIKTGNSPVKQYFYETRCKEARPVKNGCRGIDDKHWNSQCKTSQTYVRALTSANNKLVGWRWIRIDTSCVCALSRKIGRT
modifications: Neurotrophin-3
notes: NT-3 with mutation at position E92 to alanine

Columns and labels:
[1] = tested on: spiral ganglion neurons (SGNs); assay: Neurotrophin protection of dissociated SGNs against cisplatin neurotoxicity; format: cell-based, rat; conditions: 10 ng/ml neurotrophin
From the text: Quantitation of viable SGNs was done in the same way as in FIG. 1. The error bars stand for SEM. […] While no difference was found between cultures containing NT-4/5 and cultures containing BDNF, the difference between cultures containing NT-3 and cultures containing NT-4/5 or BDNF was statistically very significant (P<0.001).

[2] = tested on: hair cells in cochlear explants; assay: Protective effects in cochlear explant cultures co-treated with ototoxins, hair cell count; format: cell-based, rat; conditions: for protective effects on hair cells against ototoxins: growth factor added together with ototoxin, data not shown
Protocol: (§1) FIGS. 9A and 9B depict quantitation of protective effects of NT-4/5 on SGNs (FIG. 9A) and hair cells (FIG. 9B). […] The same experimental procedures were performed as in FIGS. 6A and 6B. The error bars are SEM and ** indicate that as compared to the cultures containing an ototoxin alone, p<0.001. “Con” indicates control culture.
(§2) The protective effect of neurotrophins against ototoxicity was determined in the organotypic cultures of postnatal cochlear explants described in the Examples above. […] A human recombinant neurotrophin (Genentech, Inc.) or other growth factors, alone or in combination, was added to the culture at the same time the ototoxin was added.
(§3) Two days after treatment with ototoxins or co-treatment with ototoxins and neurotrophins (or other growth factors), the cochlear explant cultures were fixed in 4% paraformaldehyde in 0.1 M phosphate buffer (pH 7.4) for 30 min, washed in PBS, and subjected to double histochemical staining of the cochlear explant cultures. After incubation with the monoclonal antibody N52 against neurofilament protein (200 kd) in 1% Triton X100 containing 3% normal goat serum (“NGS”) for 2 days at 4° C., the explants were incubated with a Texas red-conjugated goat anti-mouse secondary antibody (1:70; Cappel) at room temperature for 40 min. The preparations were then stained with FITC-conjugated phalloidin (0.5 μg/ml; Sigma) for 45 min, washed in PBS and mounted in Fluoromount-G (Southern Biotechnology Associates, Birmingham, Ala.) which contains an anti-fading agent.

[3] = tested on: spiral ganglion neurons (SGNs); assay: Survival of dissociated spiral ganglion neurons in serum-free culture; format: cell-based, rat; conditions: for survival-promoting effect on SGNs: P5 rat SGNs, neurotrophins 0.1-50 ng/ml
Protocol: FIG. 1 is a histogram depicting the effects of NT-4/5 on SGN survival. SGNs were prepared from P5 rats, plated and kept for 2 days in serum-free medium in the absence or presence of NT-4/5 at different concentrations. Viable SGNs were identified by labeling with a neurofilament monoclonal antibody (N52), viewed under a Zeiss Axiophot microscope, and counted using a grid ocular reticule covering an area of […]. For each culture, about 10 randomly selected fields were counted. Data were collected from 3 to 5 cultures and normalized as a percentage of the number of viable neurons in the control cultures in each of the experiments. The error bars represent SEM.
FIG. 2 is a histogram depicting the effects of different neurotrophins on SGN survival. SGNs were prepared from P5 rats and maintained for 2 days in serum-free medium without or with different neurotrophins at different concentrations. Quantitation of viable SGNs was made in the same way as in FIG. 1 and the error bars are SEM. […] Difference between NT-3 and NT-4/5 or BDNF was very significant at all doses (P<0.001). No statistical difference was found between NT-4/5 and BDNF except the dose of 0.1 ng/ml (P<0.01).
Identical results (not shown) were also obtained with a different neuronal marker, a monoclonal antibody 3A10 (Furley et al., 1990). SGNs were dissociated from postnatal day 5 (P5) rat cochleae and plated in defined serum-free medium. […] The enzyme was inactivated with a mixture of 0.005% soybean trypsin inhibitor (Sigma) and 0.005% DNase (Worthington) before trituration with 0.05% DNase in Eagle's Basal Medium (“BME”). The dissociated cells were preplated on a 35 mm untreated tissue culture dish for 25 min to enrich the neuronal population. Under these experimental procedures, about 10% of the cell population were spiral ganglion neurons (“SGNs”) as determined by immunocytochemistry with a monoclonal antibody (N52; Boehringer) against neurofilaments (200 kd; Boehringer). […] Cells were plated at a density of 80,000/well. In control cultures about 75% of SGNs died after 2 days, presumably due to a lack of growth factors.

[4] = tested on: SGNs in cochlear explants; assay: Protective effects in cochlear explant cultures co-treated with ototoxins, SGN peripheral axon count; format: cell-based, rat; conditions: for protective effects on SGNs against ototoxins: growth factor added together with ototoxin, data not shown
Protocol: as §1
FIG. 10 depicts quantitation of neuroprotection of different neurotrophins against sodium salicylate (Sal) and gentamicin (Gent). […] Sodium salicylate (5 mM) or gentamicin (3 mM) was added either alone or in combination with one of the neurotrophins (20 ng/ml) to 2-day cultures and the cultures were kept for 2 more days. The same experimental procedures were performed as in FIGS. 6A and 6B. […] The error bars are SEM and ** indicate that as compared to the cultures containing an ototoxin alone, p<0.001.
as §2, §3

trkC receptor = trkC receptor (Homo sapiens, UniProt Q16288); conditions: compared with NT-3; cited from earlier work
Sequence of trkC receptor (Q16288 32-839): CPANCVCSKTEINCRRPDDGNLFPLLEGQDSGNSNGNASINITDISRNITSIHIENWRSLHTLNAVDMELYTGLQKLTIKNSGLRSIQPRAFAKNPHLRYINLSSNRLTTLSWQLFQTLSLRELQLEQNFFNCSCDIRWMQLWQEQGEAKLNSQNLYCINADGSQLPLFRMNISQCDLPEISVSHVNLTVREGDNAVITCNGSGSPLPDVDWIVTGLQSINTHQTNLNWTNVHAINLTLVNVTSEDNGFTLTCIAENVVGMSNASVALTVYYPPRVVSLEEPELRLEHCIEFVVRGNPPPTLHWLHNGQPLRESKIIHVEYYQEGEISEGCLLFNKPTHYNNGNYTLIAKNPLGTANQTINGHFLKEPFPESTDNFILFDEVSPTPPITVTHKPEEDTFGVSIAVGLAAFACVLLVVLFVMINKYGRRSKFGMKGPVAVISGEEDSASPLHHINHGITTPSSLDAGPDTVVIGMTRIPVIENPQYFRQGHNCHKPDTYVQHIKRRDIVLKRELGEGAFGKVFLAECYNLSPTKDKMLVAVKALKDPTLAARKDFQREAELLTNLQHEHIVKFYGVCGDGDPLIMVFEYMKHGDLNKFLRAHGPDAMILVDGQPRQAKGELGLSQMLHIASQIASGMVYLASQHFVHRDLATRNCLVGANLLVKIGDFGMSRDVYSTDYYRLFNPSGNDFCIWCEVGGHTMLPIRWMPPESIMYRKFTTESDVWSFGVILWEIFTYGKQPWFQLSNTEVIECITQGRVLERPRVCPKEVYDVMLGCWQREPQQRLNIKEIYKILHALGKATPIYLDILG

| Molecule | survival-promoting effect on SGNs ([3]; 2 days, serum-free medium) | protective effects on hair cells against ototoxins [2] | protective effects on SGNs against ototoxins [4] | further results |
| --- | --- | --- | --- | --- |
| B1 | greatly enhanced the number of surviving SGNs in a dose-dependent manner |  |  | percentage of surviving SGNs compared with control cultures lacking cisplatin ([1]; 1 μg/ml or 2 μg/ml cisplatin, 2 days): higher than that in the control cultures lacking cisplatin; protection of SGNs compared with cultures containing cisplatin alone ([1]; 4 μg/ml cisplatin): significantly protected SGNs from cell death; survival level, % of control cultures in the absence of cisplatin ([1]; 4 μg/ml cisplatin, 2 days): 70%; number of hair cells in control cultures ([2]; 20 ng/ml, no ototoxin): did not enhance; potency on SGN survival compared with other neurotrophins ([3]; 0.1 ng/ml): more potent than BDNF; maximal effect, increase in number of surviving SGNs ([3]; 10 ng/ml, 2 days, serum-free medium, vs control cultures): approximately 3 fold; synergistic/additive effects on SGN survival when added together with BDNF or NT-3 ([3]; saturated concentrations): no additive effects; neuroprotection of SGNs against sodium salicylate and gentamicin ([4]; 20 ng/ml neurotrophin, sodium salicylate 5 mM or gentamicin 3 mM): significant neuroprotection; number of SGNs in control cultures ([4]; 20 ng/ml, no ototoxin): did not enhance; protection of SGNs from the three ototoxins ([4]; 20 ng/ml, sodium salicylate 5 mM, gentamicin 3 mM or cisplatin 4 μg/ml, 2 days co-treatment): significantly protected SGNs from the three ototoxins |
| B2 |  | did not show detectable protective effects | did not show detectable protective effects |  |
| B3 | No survival-promoting effects | did not show detectable protective effects | did not show detectable protective effects |  |
| B4 | No survival-promoting effects | did not show detectable protective effects | did not show detectable protective effects |  |
| B5 |  | did not show detectable protective effects | did not show detectable protective effects |  |
| B6 |  |  |  | trkC binding of NT-3 mutant (trkC receptor): increased trkC binding |
